Numbering of substitutions follows the chain as printed. One block for each molecule: values may come before it.
How the values were obtained:
Assay in all cases: Selectivity ELISA of humanized antibodies for human Eph receptor
Assay type in all cases: binding
Conditions in all cases: coated protein 1 nM
human EphB2 = biological target: T1, human EphB2 (Homo sapiens, UniProt P29323)
T1 construct: a protein of the extracellular region of each human Eph receptor fused with the SEAP protein and the His tag; made in house; host or cells: Expi293F cells
T1 sequence (P29323 19-543 limits assumed): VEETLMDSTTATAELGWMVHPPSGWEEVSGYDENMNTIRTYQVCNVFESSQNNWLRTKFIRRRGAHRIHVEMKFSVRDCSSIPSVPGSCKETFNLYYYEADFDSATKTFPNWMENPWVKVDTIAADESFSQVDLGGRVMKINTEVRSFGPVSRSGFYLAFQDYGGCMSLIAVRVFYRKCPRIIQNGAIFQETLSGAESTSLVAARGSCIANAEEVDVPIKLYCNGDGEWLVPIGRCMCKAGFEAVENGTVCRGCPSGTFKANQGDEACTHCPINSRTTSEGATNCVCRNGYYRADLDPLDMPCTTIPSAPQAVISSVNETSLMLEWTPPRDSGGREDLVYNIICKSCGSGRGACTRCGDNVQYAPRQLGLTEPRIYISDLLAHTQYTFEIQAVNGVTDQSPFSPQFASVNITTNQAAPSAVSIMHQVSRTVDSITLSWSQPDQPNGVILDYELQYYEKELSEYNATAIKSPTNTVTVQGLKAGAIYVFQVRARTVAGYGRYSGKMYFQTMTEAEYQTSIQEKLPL
Method in brief: (§1)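 His-tagged SEAP fusions of each human Eph receptor extracellular region, from Expi293F supernatants, were captured at 1 nM on anti-His-coated wells. Humanized antibody was bound 1 h at room temperature, then detected with HRP […] IgG. TMB development was acid-stopped and read at 450 nm.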

human EphB3 = biological target: T2, human EphB3 (Homo sapiens, UniProt P54753)
T2 construct: a protein of the extracellular region of each human Eph receptor fused with the SEAP protein and the His tag; made in house; host or cells: Expi293F cells
T2 sequence (P54753 34-559 limits assumed): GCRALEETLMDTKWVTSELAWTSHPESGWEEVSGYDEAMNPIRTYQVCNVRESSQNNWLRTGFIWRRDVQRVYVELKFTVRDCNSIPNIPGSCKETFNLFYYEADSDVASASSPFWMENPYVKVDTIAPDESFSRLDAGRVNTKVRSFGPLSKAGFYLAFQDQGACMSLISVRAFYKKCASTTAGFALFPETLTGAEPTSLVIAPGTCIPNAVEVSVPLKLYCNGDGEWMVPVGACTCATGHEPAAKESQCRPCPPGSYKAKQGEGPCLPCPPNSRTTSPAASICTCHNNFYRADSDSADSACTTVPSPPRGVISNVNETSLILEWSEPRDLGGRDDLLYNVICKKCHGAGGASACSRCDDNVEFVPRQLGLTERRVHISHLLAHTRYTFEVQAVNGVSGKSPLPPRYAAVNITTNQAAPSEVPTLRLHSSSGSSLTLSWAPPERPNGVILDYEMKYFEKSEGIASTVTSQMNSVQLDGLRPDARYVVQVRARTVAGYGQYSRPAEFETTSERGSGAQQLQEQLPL
Method in brief: as §1

human EphB1 = biological target: T3, human EphB1 (Homo sapiens, UniProt P54762)
T3 construct: a protein of the extracellular region of each human Eph receptor fused with the SEAP protein and the His tag; made in house; host or cells: Expi293F cells (culture supernatant)
T3 sequence (P54762 18-540 limits assumed): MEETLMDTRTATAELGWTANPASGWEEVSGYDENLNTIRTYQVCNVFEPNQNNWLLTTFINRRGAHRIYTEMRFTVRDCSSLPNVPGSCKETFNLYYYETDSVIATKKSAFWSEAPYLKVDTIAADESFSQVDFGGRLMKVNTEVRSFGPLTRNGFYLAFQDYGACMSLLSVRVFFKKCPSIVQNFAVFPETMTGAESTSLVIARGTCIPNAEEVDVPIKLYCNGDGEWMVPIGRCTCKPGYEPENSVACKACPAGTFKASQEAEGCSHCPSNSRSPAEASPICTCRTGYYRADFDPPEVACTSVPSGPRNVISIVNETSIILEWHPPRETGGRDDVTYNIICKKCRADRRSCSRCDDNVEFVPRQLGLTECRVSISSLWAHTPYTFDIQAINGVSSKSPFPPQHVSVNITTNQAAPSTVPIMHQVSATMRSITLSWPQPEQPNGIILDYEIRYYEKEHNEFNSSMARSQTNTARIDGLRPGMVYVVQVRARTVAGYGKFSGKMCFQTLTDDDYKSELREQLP
Method in brief: as §1

human EphA5 = biological target: T4, human EphA5 (Homo sapiens, UniProt P54756)
T4 construct: a protein of the extracellular region of each human Eph receptor fused with the SEAP protein and the His tag; made in house; host or cells: Expi293F cells (culture supernatant)
Method in brief: as §1

T4 sequence (P54756 25-573 limits assumed): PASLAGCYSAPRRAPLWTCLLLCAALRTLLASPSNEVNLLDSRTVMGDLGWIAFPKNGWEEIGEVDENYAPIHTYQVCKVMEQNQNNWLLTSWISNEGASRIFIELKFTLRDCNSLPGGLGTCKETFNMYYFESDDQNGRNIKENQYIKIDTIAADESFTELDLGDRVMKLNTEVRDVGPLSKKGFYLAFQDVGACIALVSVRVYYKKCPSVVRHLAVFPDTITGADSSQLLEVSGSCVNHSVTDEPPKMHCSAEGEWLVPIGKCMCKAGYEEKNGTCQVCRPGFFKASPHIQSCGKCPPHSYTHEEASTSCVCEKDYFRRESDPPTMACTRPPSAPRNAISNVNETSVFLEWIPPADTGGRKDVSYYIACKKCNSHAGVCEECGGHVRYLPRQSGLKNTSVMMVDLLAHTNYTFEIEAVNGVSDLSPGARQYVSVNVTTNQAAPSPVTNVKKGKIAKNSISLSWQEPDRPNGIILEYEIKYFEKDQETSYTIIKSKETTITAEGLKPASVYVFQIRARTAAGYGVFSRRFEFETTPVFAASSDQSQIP

B1: 153 (antibody, V domains shown)
VH: QVQLVQSGSELKKPGASVKVSCKASGYTFTDYSMHWVRQAPGQGLKWMGWINTETGEPTYAQGFTGRFVFSLDTSVSTAYLQISSLKAEDTAVYYCARIPLYYYGSRYWYFDVWGQGTTVTVSS
VL: DIQMTQSPSSLSASVGDRVTITCRASENIYRNLAWYQQKPGKAPKLLLYAATNLADGVPSRFSGSGSGTDYTLTISSLQSEDFATYYCQHFWGTPWTFGQGTKVEIK
modifications: synthetic humanized antibody heavy chain variable region sequence; synthetic humanized antibody light chain variable region sequence
hEphB2-SEAP-: absorbance at 450 nm, percentage with respect to hEphA4-SEAP-His as 100% (human EphB2): 5.9%
hEphB3-SEAP-: absorbance at 450 nm, percentage with respect to hEphA4-SEAP-His as 100% (human EphB3): 5.9%
hEphB1-SEAP-: absorbance at 450 nm, percentage with respect to hEphA4-SEAP-His as 100% (human EphB1): 6.0%
hEphA5-SEAP-: absorbance at 450 nm, percentage with respect to hEphA4-SEAP-His as 100% (human EphA5): 6.1%

B5: 145 (antibody, V domains shown)
VH: B1 VH with Q62D, G63D, T65K
VL: B1 VL
modifications: synthetic humanized antibody heavy chain variable region sequence; synthetic humanized antibody light chain variable region sequence
hEphB2-SEAP-: absorbance at 450 nm, percentage with respect to hEphA4-SEAP-His as 100% (human EphB2): 6.7%
hEphB3-SEAP-: absorbance at 450 nm, percentage with respect to hEphA4-SEAP-His as 100% (human EphB3): 6.7%
hEphB1-SEAP-: absorbance at 450 nm, percentage with respect to hEphA4-SEAP-His as 100% (human EphB1): 6.5%
hEphA5-SEAP-: absorbance at 450 nm, percentage with respect to hEphA4-SEAP-His as 100% (human EphA5): 6.6%

B6: 144 (antibody, V domains shown)
VH: B1 VH with K46E, Q62D, G63D, T65K
VL: B1 VL with K45Q, S80P
modifications: synthetic humanized antibody heavy chain variable region sequence; synthetic humanized antibody light chain variable region sequence
hEphB2-SEAP-: absorbance at 450 nm, percentage with respect to hEphA4-SEAP-His as 100% (human EphB2): 5.7%
hEphB3-SEAP-: absorbance at 450 nm, percentage with respect to hEphA4-SEAP-His as 100% (human EphB3): 5.8%
hEphB1-SEAP-: absorbance at 450 nm, percentage with respect to hEphA4-SEAP-His as 100% (human EphB1): 5.7%
hEphA5-SEAP-: absorbance at 450 nm, percentage with respect to hEphA4-SEAP-His as 100% (human EphA5): 5.6%

B7: 151 (antibody, V domains shown)
VH: B1 VH with V2I
VL: B1 VL
modifications: synthetic humanized antibody heavy chain variable region sequence; synthetic humanized antibody light chain variable region sequence
hEphB2-SEAP-: absorbance at 450 nm, percentage with respect to hEphA4-SEAP-His as 100% (human EphB2): 7.0%
hEphB3-SEAP-: absorbance at 450 nm, percentage with respect to hEphA4-SEAP-His as 100% (human EphB3): 7.3%
hEphB1-SEAP-: absorbance at 450 nm, percentage with respect to hEphA4-SEAP-His as 100% (human EphB1): 6.8%
hEphA5-SEAP-: absorbance at 450 nm, percentage with respect to hEphA4-SEAP-His as 100% (human EphA5): 7.0%

B8: 154 (antibody, V domains shown)
VH: B1 VH with K46E, Q62D, G63D, T65K
VL: B1 VL
modifications: synthetic humanized antibody heavy chain variable region sequence; synthetic humanized antibody light chain variable region sequence
hEphB2-SEAP-: absorbance at 450 nm, percentage with respect to hEphA4-SEAP-His as 100% (human EphB2): 6.2%
hEphB3-SEAP-: absorbance at 450 nm, percentage with respect to hEphA4-SEAP-His as 100% (human EphB3): 6.2%
hEphB1-SEAP-: absorbance at 450 nm, percentage with respect to hEphA4-SEAP-His as 100% (human EphB1): 6.3%
hEphA5-SEAP-: absorbance at 450 nm, percentage with respect to hEphA4-SEAP-His as 100% (human EphA5): 6.3%

B9: 155 (antibody, V domains shown)
VH: B1 VH with V2I, Q62D, G63D, T65K
VL: B1 VL
modifications: synthetic humanized antibody heavy chain variable region sequence; synthetic humanized antibody light chain variable region sequence
hEphB2-SEAP-: absorbance at 450 nm, percentage with respect to hEphA4-SEAP-His as 100% (human EphB2): 5.5%
hEphB3-SEAP-: absorbance at 450 nm, percentage with respect to hEphA4-SEAP-His as 100% (human EphB3): 5.5%
hEphB1-SEAP-: absorbance at 450 nm, percentage with respect to hEphA4-SEAP-His as 100% (human EphB1): 5.4%
hEphA5-SEAP-: absorbance at 450 nm, percentage with respect to hEphA4-SEAP-His as 100% (human EphA5): 5.6%

Now from value to molecule:

hEphB2-SEAP-: absorbance at 450 nm, percentage with respect to hEphA4-SEAP-His as 100% (human EphB2): 6.2%
hEphB3-SEAP-: absorbance at 450 nm, percentage with respect to hEphA4-SEAP-His as 100% (human EphB3): 6.2%
hEphB1-SEAP-: absorbance at 450 nm, percentage with respect to hEphA4-SEAP-His as 100% (human EphB1): 6.1%
hEphA5-SEAP-: absorbance at 450 nm, percentage with respect to hEphA4-SEAP-His as 100% (human EphA5): 6.5%
B2: 160 (antibody, V domains shown)
VH: B1 VH with V2I, Q62D, G63D, T65K
VL: B1 VL with K45Q, S80P
modifications: synthetic humanized antibody heavy chain variable region sequence; synthetic humanized antibody light chain variable region sequence

hEphB2-SEAP-: absorbance at 450 nm, percentage with respect to hEphA4-SEAP-His as 100% (human EphB2): 5.4%
hEphB3-SEAP-: absorbance at 450 nm, percentage with respect to hEphA4-SEAP-His as 100% (human EphB3): 5.5%
hEphB1-SEAP-: absorbance at 450 nm, percentage with respect to hEphA4-SEAP-His as 100% (human EphB1): 5.3%
hEphA5-SEAP-: absorbance at 450 nm, percentage with respect to hEphA4-SEAP-His as 100% (human EphA5): 5.5%
B3: 159 (antibody, V domains shown)
VH: B1 VH with Q62D, G63D, T65K
VL: B1 VL with K45Q, S80P
modifications: synthetic humanized antibody heavy chain variable region sequence; synthetic humanized antibody light chain variable region sequence

hEphB2-SEAP-: absorbance at 450 nm, percentage with respect to hEphA4-SEAP-His as 100% (human EphB2): 6.2%
hEphB3-SEAP-: absorbance at 450 nm, percentage with respect to hEphA4-SEAP-His as 100% (human EphB3): 6.4%
hEphB1-SEAP-: absorbance at 450 nm, percentage with respect to hEphA4-SEAP-His as 100% (human EphB1): 6.1%
hEphA5-SEAP-: absorbance at 450 nm, percentage with respect to hEphA4-SEAP-His as 100% (human EphA5): 6.1%
B4: 157 (antibody, V domains shown)
VH: B1 VH with K46E
VL: B1 VL with K45Q, S80P
modifications: synthetic humanized antibody heavy chain variable region sequence; synthetic humanized antibody light chain variable region sequence

hEphB2-SEAP-: absorbance at 450 nm, percentage with respect to hEphA4-SEAP-His as 100% (human EphB2): 6.3%
hEphB3-SEAP-: absorbance at 450 nm, percentage with respect to hEphA4-SEAP-His as 100% (human EphB3): 6.5%
hEphB1-SEAP-: absorbance at 450 nm, percentage with respect to hEphA4-SEAP-His as 100% (human EphB1): 6.2%
hEphA5-SEAP-: absorbance at 450 nm, percentage with respect to hEphA4-SEAP-His as 100% (human EphA5): 6.7%
B10: 158 (antibody, V domains shown)
VH: B1 VH
VL: B1 VL with K45Q, S80P
modifications: synthetic humanized antibody heavy chain variable region sequence; synthetic humanized antibody light chain variable region sequence

From patent US10428140B2, “Anti-EphA4 antibody” (EISAI R&D MANAGEMENT CO., LTD., priority 2015, dated 2019)
